Here are results for 1 molecule from publication PMC11293870.

In this test the target is T1, LKB1-3xFlag (pcDNA3.1-LKB1-3xFlag) (human) (UniProt Q15831).
T1 sequence: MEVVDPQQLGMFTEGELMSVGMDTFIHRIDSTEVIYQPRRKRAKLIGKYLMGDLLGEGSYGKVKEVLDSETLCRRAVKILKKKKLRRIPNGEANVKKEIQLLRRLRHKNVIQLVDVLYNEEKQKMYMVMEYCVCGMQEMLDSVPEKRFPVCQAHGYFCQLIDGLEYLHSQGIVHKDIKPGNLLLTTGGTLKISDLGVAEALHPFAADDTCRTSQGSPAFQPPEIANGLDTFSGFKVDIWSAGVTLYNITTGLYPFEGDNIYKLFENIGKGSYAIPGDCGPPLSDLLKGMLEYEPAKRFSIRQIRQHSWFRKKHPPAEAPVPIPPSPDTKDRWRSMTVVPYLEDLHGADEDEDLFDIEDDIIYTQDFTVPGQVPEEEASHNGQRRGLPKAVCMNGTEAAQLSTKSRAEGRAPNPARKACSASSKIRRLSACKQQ

B1: STRADα-KinCon (pcDNA3.1-F[1]-STRADα-F[2]) (natural protein)
chain: MSFLVSKPERIRRWVSEKFIVEGLRDLELFGEQPPGDTRRKTNDASSESIASFSKQEVMSSFLPEGGCYELLTVIGKGFEDLMTVNLARYKPTGEYVTVRRINLEACSNEMVTFLQGELHVSKLFNHPNIVPYRATFIADNELWVVTSFMAYGSAKDLICTHFMDGMNELAIAYILQGVLKALDYIHHMGYVHRSVKASHILISVDGKVYLSGLRSNLSMISHGQRQRVVHDFPKYSVKVLPWLSPEVLQQNLQGYDAKSDIYSVGITACELANGHVPFKDMPATQMLLEKLNGTVPCLLDTSTIPAEELTMSPSRSVANSGLSDSLTTSTPRPSNGDSPSHPYHRTFSPHFHHFVEQCLQRNPDARPSASTLLNHSFFKQIKRRASEALPELLRPVTPITNFEGSQSQDHSGIFGLVTNLEELEVDDWEF
In turn, B1 returned an STRADα KinCon reporter bioluminescence (intramolecular RLuc PCA, closing of the conformation) on co-expression of LKB1 and MO25; HEK293T, 48 hr of expression (also HeLa and SW480) of more than 10 fold.
